Series [1] in a line: Peptide content (assay) of lyophilized drug product by UPLC-UV at 220 nm, method according to the invention (USP reserpine reference standard, RRF). The class given is physicochemical. The conditions noted are these: method according to the invention (USP RS). The text has this: The UPLC method similar to Example 1 was used for the quantification of analytes (i.e. the individual peptides) in mixtures DP-5P (SEQ ID NO: 1-5) and DP-7P (SEQ ID NO: 6-12) and for the determination of content uniformity of mixtures DP-5P and DP-7P (lyophilized product). The method is based on the use of an external reference standard. The relative response factor (ratio of molar extinction coefficients, RRF) against this external reference standard has been established for each peptide. The purity, individual related substances, and the assay of DP-5P and DP-7P were determined by reversed phase rapid HPLC (UPLC) using a mobile phase gradient of ACN/IPA and water and UV detection at λ220 nm.
The following lyophilized peptide compositions were used: DP-5P comprising peptides represented herein by SEQ ID NO: 1-5 admixed at equal net weights of 0.40 mg of each peptide per vial (total amount of protein per vial being 2.00 mg) and 0.56 mg TFA per vial; and DP-7P comprising peptides represented herein by SEQ ID NO: 6-12 admixed at equal net weights of 0.40 mg of each peptide per vial (total amount of protein per vial being 2.80 mg) and 0.96 mg TFA per vial. The following chemicals were used: Acetonitrile, (Biosolve, 01204102); UPLC water, (Type 1, milli-Q); trifluoroacetic acid, (Chem Lab, CLoo.2094.0001), 2-propanol, (UPLC/MS grade, Biosolve, 16264102); Reserpine, (USP, Sigma Aldrich, 1601000). The following equipment was used: QuanRecovery vials, (Waters, 186009186); UPLC pump equipped with a gradient system, autosampler, and UV detection (Waters Acquity or equivalent) and mixer volume 425 μL.
• Mobile phase A: 0.1% (v/v) TFA in water • Mobile phase B: 0.1% (v/v) TFA in 70/30 ACN/IPA • Diluent A: 0.05% (v/v) TFA in water • Diluent B: 0.05% (v/v) TFA in ACN • Blank solution: 80/20 (v/v) diluent A/diluent B • Purge solvent: 80/20 (v/v) water/ACN • Needle wash: 0.05% (v/v) TFA in 80/20 (v/v) water/ACN
5.00 mg Reserpine reference material was accurately weighed and added into a 50 mL volumetric flask. 40.0 mL of blank solution was added, by means of a volumetric pipette. The solution was stirred for 10 min, by means of a magnetic stirrer, until fully dissolved. The solution was diluted to volume with blank solution and mixed well.
Transfer of 2.0 mL, by means of a volumetric pipette, of stock reference solution 1 into a 20 mL volumetric flask. Diluted to volume with blank solution and homogenized.
This sample preparation was setup for lyophilized products DP-5P and DP-7P in an initially sealed container. Before opening and dissolving the drug product, the vials were equilibrated at room temperature for at least 1 hour. The content of the vial was dissolved with 0.8 mL of diluent B, and stirred for 20 min, using a magnetic stirrer. 3.2 mL of diluent A were added. The solution was stirred well for 20 min, using a magnetic stirrer. After dissolving the content of the vial, the sample vial was kept on the lab bench for 30 minutes. The solution was stirred briefly and transferred into an HPLC vial.
• Column: Advance Bio Peptide Map (2.7 μm, 250 x 2.1 mm) • Sample matrix 0.05%v/v TFA in ACN : water (1:4 v/v) • Sample concentration 100 μg/mL net peptide (of each drug substance), duplicate • Injection volume: 10 μL • Column temperature: 40° C. • Sample temperature: 5° C. • Detection: UV (λ=220 nm) • Flow rate: 0.2 mL/min • Run time: 65 min • Purge solvent: 80/20 (v/v) water/ACN • Needle wash: 0.05% (v/v) TFA in 80/20 water/ACN (v/v) (20 s) • Seal wash: 90/10 (v/v) water/MeOH • Elution mode: Gradient elution • Eluent A: 0.1%v/v TFA in water • Eluent B: 0.1%v/v TFA in ACN/IPA (70:30 v/v)
The RRF was determined for all 12 peptides, enabling the quantification of each peptide against a reserpine as shown above. For the determination, the absorbance of each peptide in a solution comprising said peptide at a known concentration, and of a reference standard solution comprising reserpine at a known concentration, were measured at 220 nm. […]

The nature of series [2]: Peptide content (assay) of lyophilized drug product by UPLC-UV at 220 nm, conventional method (peptide as reference standard). In kind it is physicochemical. The conditions noted are these: conventional method (peptide as RS). Here is the method: The purity including individual related substances and the assay of a DP-5P (5 peptides, SEQ ID NOs: 1-5) and DP-7P (7 peptides, SEQ ID NOs: 6-12) mixture were determined by reversed phase rapid HPLC (UPLC) using a mobile phase gradient of acetonitrile and water and UV detection at λ=220 nm.
• Column: RP C18, e.g. Waters Acquity, BEH 130 PST (1.7 μm, 150×2.1 mm) • Sample matrix Eluent A : Eluent B=85:15 (v/v). • Sample concentration 100 μg/mL net peptide (of each drug substance mixture), duplicate • Injection volume: 5 μL • Column temperature: 65° C. • Sample temperature: 5° C. • Detection: UV (λ=220 nm) • Flow rate: 0.3 mL/min • Eluent A: 0.05%v/v TFA and 1%v/v Acetonitrile (ACN) in water • Eluent B: 0.05%v/v TFA in ACN
The relative retention times (RRTs) assigned to peptides and related substances both in a DP-5P (SEQ ID NO: 1-5) and DP-7P (SEQ ID NO: 6-12) mixture was calculated with reference to the retention time of the peptide eluting in the middle (FIG. 1 and FIG. 2). That retention time was used as reference as the main peak of this drug substance was detected approx. in the center of the chromatogram. The related substances were determined by area normalization. The individual related substances were reported≥0.10%a/a. The total related substances were calculated as the sum of all individual related substances equal to or greater than a disregard limit of 0.0500%a/a. The purity was calculated as the difference between total related substances and 100%.
The assay of each of the peptides was calculated against a reference standard solution containing either five peptides (DP-5P) or seven peptides (DP-7P) and was expressed in percent and in mg net peptide/vial. For this reference method, the absorption ratio between the reference substance and the analyte is 1, because the reference substance is the analyte itself.
At T=0 months (TOM) the peptide content was measured using the conventional method of Example 2. From T=48 months (T48M) onwards the peptide content was measured with the conventional method of Example 2 and the method according to the invention of Example 3.

In the case of “DKKQRFHNIRGRWTGRCMSCCRSSRTRRETQL (Peptide 6)”, the “Assay (mg/vial)” value in series [1] (DP-7P batch, T48M) came to 0.4100 mg/vial; in series [1] (DP-7P batch, T54M), 0.4033 mg/vial; in series [1] (DP-7P batch, T60M), 0.4010 mg/vial; in series [2] (DP-7P batch, T0M) it was 0.4315 mg/vial; in series [2] (DP-7P batch, T48M), 0.4390 mg/vial; in series [2] (DP-7P batch, T54M), 0.4280 mg/vial. Further, the “Assay (mg/vial)” value in series [2] (DP-7P batch, T60M) amounted to 0.4286 mg/vial. Moreover, the “Label claim (% target 0.40 mg/vial)” value in series [1] (DP-7P batch, T48M) came out at 103%; in series [1] (DP-7P batch, T54M) it was 101%; in series [1] (DP-7P batch, T60M), 100%; in series [2] (DP-7P batch, T0M), 108%; in series [2] (DP-7P batch, T48M), 110%; in series [2] (DP-7P batch, T54M) it was 107%. Moreover, the “Label claim (% target 0.40 mg/vial)” value in series [2] (DP-7P batch, T60M) is listed as 107%.
For the sequence “RCINCQKPLCPEEKQRHLDKKQRFHNIRGRWT (Peptide 4)”, the “Assay (mg/vial)” value in series [1] (DP-5P batch, T48M) is 0.3820 mg/vial; in series [1] (DP-5P batch, T54M) it was 0.3966 mg/vial; in series [1] (DP-5P batch, T60M), 0.3842 mg/vial; in series [2] (DP-5P batch, T0M), 0.3936 mg/vial; in series [2] (DP-5P batch, T48M), 0.3937 mg/vial; in series [2] (DP-5P batch, T54M), 0.3911 mg/vial. Besides, the “Assay (mg/vial)” value in series [2] (DP-5P batch, T60M) is recorded as 0.3913 mg/vial. The “Label claim (% target 0.40 mg/vial)” value is on record as 96% in series [1] (DP-5P batch, T48M); 99% in series [1] (DP-5P batch, T54M); 96% in series [1] (DP-5P batch, T60M); 98% in series [2] (DP-5P batch, T0M); 98% in series [2] (DP-5P batch, T48M); 98% in series [2] (DP-5P batch, T54M). For the same sequence, in series [2] (DP-5P batch, T60M), the “Label claim (% target 0.40 mg/vial)” value was found to be 98%.
Take “YGTTLEQQYNKPLCDLLIRCINCQKPLCPEEK (Peptide 12)”: the “Assay (mg/vial)” value in series [1] (DP-7P batch, T48M) was 0.4132 mg/vial; in series [1] (DP-7P batch, T54M), 0.4034 mg/vial; in series [1] (DP-7P batch, T60M), 0.4010 mg/vial; in series [2] (DP-7P batch, T0M) it was 0.4261 mg/vial; in series [2] (DP-7P batch, T48M), 0.4323 mg/vial; in series [2] (DP-7P batch, T54M), 0.4215 mg/vial. For the same sequence, in series [2] (DP-7P batch, T60M), the “Assay (mg/vial)” value stood at 0.4219 mg/vial. For the same sequence, the “Label claim (% target 0.40 mg/vial)” value in series [1] (DP-7P batch, T48M) is on record as 103%; in series [1] (DP-7P batch, T54M) it was 101%; in series [1] (DP-7P batch, T60M) it was 100%; in series [2] (DP-7P batch, T0M), 107%; in series [2] (DP-7P batch, T48M), 108%; in series [2] (DP-7P batch, T54M) it was 105%. Besides, the “Label claim (% target 0.40 mg/vial)” value in series [2] (DP-7P batch, T60M) is listed as 105%.
On to RDLCIVYRDGNPYAVCDKCLKFYSKI (Peptide 11), for which the “Assay (mg/vial)” value is 0.3866 mg/vial in series [1] (DP-7P batch, T48M); 0.3815 mg/vial in series [1] (DP-7P batch, T54M); 0.3788 mg/vial in series [1] (DP-7P batch, T60M); 0.4235 mg/vial in series [2] (DP-7P batch, T0M); 0.4293 mg/vial in series [2] (DP-7P batch, T48M); 0.4192 mg/vial in series [2] (DP-7P batch, T54M). The “Assay (mg/vial)” value in series [2] (DP-7P batch, T60M) is reported as 0.4209 mg/vial. For the same sequence, the “Label claim (% target 0.40 mg/vial)” value in series [1] (DP-7P batch, T48M) was 97%; in series [1] (DP-7P batch, T54M), 95%; in series [1] (DP-7P batch, T60M), 95%; in series [2] (DP-7P batch, T0M), 106%; in series [2] (DP-7P batch, T48M), 107%; in series [2] (DP-7P batch, T54M), 105%. The “Label claim (% target 0.40 mg/vial)” value in series [2] (DP-7P batch, T60M) is listed as 105%.
As for “MHGDTPTLHEYMLDLQPETTDLYCYEQLNDSSEEE [Peptide 3]”, the “Assay (mg/vial)” value is listed as 0.3798 mg/vial in series [1] (DP-5P batch, T48M); 0.3789 mg/vial in series [1] (DP-5P batch, T54M); 0.3883 mg/vial in series [1] (DP-5P batch, T60M); 0.3942 mg/vial in series [2] (DP-5P batch, T0M); 0.4311 mg/vial in series [2] (DP-5P batch, T48M); 0.4194 mg/vial in series [2] (DP-5P batch, T54M). The “Assay (mg/vial)” value in series [2] (DP-5P batch, T60M) came out at 0.4170 mg/vial. In addition, the “Label claim (% target 0.40 mg/vial)” value in series [1] (DP-5P batch, T48M) worked out at 95%; in series [1] (DP-5P batch, T54M) it was 95%; in series [1] (DP-5P batch, T60M), 97%; in series [2] (DP-5P batch, T0M), 99%; in series [2] (DP-5P batch, T48M), 108%; in series [2] (DP-5P batch, T54M) it was 105%. Besides, in series [2] (DP-5P batch, T60M), the “Label claim (% target 0.40 mg/vial)” value was 104%.
As to “MHQKRTAMFQ QERPRKLPQLCTELQTTIHD (MHQKRTAMFQQERPRKLPQLCTELQTTIHD; Peptide 10)”, the “Assay (mg/vial)” value in series [1] (DP-7P batch, T48M) stood at 0.4060 mg/vial; in series [1] (DP-7P batch, T54M), 0.3966 mg/vial; in series [1] (DP-7P batch, T60M), 0.3945 mg/vial; in series [2] (DP-7P batch, T0M) it was 0.4212 mg/vial; in series [2] (DP-7P batch, T48M), 0.4329 mg/vial; in series [2] (DP-7P batch, T54M), 0.4271 mg/vial. The “Assay (mg/vial)” value in series [2] (DP-7P batch, T60M) is 0.4362 mg/vial. Besides, the “Label claim (% target 0.40 mg/vial)” value in series [1] (DP-7P batch, T48M) is 101%; in series [1] (DP-7P batch, T54M) it was 99%; in series [1] (DP-7P batch, T60M) it was 99%; in series [2] (DP-7P batch, T0M), 105%; in series [2] (DP-7P batch, T48M) it was 108%; in series [2] (DP-7P batch, T54M) it was 107%. Further, the “Label claim (% target 0.40 mg/vial)” value in series [2] (DP-7P batch, T60M) stood at 109%.

For the origin of these results see patent US20230296569A1, “Substance quantification in complex mixtures” (ISA Pharmaceuticals B.V., priority 2021, published 2023).
